Molecular target: human complement Factor H (human) (UniProt P08603)
Experiment: SPR

Chain of human complement Factor H (human) (P08603 19-1231): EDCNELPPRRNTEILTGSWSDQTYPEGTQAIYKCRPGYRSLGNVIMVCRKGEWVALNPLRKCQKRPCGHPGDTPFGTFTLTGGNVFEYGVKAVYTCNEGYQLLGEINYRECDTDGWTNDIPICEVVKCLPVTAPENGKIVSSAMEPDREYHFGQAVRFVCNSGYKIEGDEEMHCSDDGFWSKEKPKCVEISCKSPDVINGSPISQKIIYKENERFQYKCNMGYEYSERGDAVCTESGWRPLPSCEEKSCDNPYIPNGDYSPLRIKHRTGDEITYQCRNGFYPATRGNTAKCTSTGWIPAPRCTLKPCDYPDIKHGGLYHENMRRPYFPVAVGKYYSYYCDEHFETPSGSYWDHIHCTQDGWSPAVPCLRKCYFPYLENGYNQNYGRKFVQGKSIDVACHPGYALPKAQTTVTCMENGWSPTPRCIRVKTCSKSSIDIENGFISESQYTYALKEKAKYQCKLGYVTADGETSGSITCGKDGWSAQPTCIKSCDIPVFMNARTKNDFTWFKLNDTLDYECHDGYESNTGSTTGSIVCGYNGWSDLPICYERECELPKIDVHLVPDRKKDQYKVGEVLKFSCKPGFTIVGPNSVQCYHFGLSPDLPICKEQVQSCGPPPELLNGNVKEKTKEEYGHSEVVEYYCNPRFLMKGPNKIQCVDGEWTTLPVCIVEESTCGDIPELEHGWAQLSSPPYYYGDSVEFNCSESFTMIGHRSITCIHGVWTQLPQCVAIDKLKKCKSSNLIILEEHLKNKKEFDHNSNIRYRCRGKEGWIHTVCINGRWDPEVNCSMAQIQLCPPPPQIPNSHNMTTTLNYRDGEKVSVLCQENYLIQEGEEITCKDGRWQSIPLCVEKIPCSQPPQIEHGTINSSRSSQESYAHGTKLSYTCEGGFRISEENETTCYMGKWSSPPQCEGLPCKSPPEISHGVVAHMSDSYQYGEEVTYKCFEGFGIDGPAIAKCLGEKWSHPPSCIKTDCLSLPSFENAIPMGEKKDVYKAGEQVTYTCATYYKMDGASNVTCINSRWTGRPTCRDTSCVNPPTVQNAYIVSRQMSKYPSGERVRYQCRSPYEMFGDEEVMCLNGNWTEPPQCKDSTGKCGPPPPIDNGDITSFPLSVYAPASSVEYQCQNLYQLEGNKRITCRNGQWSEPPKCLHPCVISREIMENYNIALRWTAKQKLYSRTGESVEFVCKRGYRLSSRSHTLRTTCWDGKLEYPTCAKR

Substance | response units at 100 nM FHbp (response units)
FHbp ID 1 E92K mutant, soluble recombinant (from UniProt Q9JXV4 20-274) (natural protein) | < 2
FHbp ID 1 H248L mutant, soluble recombinant (from UniProt Q9JXV4 20-274) (natural protein) | < 2
FHbp ID 1 S223R mutant, soluble recombinant (from UniProt Q9JXV4 20-274) (natural protein) | < 2
